Data published in doi:10.1101/2021.12.16.473085 (2021).

Assays:
Test in all cases: SPR
[1] = target: hGH K41R
[2] = target: hGH E65Y
[3] = target: hGH Q46R
[4] = target: hGH R178Y
[5] = target: hGH R178F
[6] = target: hGH Q22H
[7] = target: hGH S51D

B1: human Growth Hormone Receptor (hGHR) (receptor)
chain: FSGSEATAAILSRAPWSLQSVNPGLKTNSSKEPKFTKCRSPERETFSCHWTDEVHHGTKNLGPIQLFYTRRNTQEWTQEWKECPDYVSAGENSCYFNSSFTSIWIPYCIKLTSNGGTVDEKCFSVDEIVQPDPPIALNWTLLNVSLTGIHADIQVRWEAPRNADIQKGWMVLEYELQYKEVNETKWKMMDPILTTSVPVYSLKVDKEYEVRVRSKQRNSGNYGEFSEVLYVTLPQMSQFTCEEDFYFPWLLIIIFGIFGLTVMLFVFLFSKQQRIKMLILPPVPVPKIKGIDPDLLKEGKLEEVNTILAIHDSYKPEFHSDDSWVEFIELDIDEPDEKTEESDTDRLLSSDHEKSHSNLGVKDGDSGRTSCCEPDILETDFNANDIHEGTSEVAQPQRLKGEADLLCLDQKNQNNSPYHDACPATQQPSVIQAEKNKPQPLPTEGAESTHQAAHIQLSNPSSLSNIDFYAQVSDITPAGSVVLSPGQKNKAGMSQCDMHPEMVSLCQENFLMDNAYFCEADAKKCIPVAPHIKVESHIQPSLNQEDIYITTESLTTAAGRPGTGEHVPGSEMPVPDYTSIHIVQSPQGLILNATALPLPDKEFLSSCGYVSTDQLNKIMP
[1]
  Kd: 20 nM
  koff: 0.001 s⁻¹
[2]
  Kd: 0.4 nM
  koff: 0.0003 s⁻¹
[3]
  Kd: 40 nM
  koff: 0.0006 s⁻¹
[4]
  Kd: 20 nM
  koff: 0.006 s⁻¹
[5]
  Kd: 30 nM
  koff: 0.008 s⁻¹
[6]
  Kd: 8 nM
  koff: 0.0004 s⁻¹
[7]
  Kd: 0.6 nM
  koff: 0.0007 s⁻¹
